# Assay results taken from paper PMC3991884, “Trehalose synthesis in Aspergillus niger: characterization of six homologous genes, all with conserved orthologs in related species” (BMC Microbiology, 2014).
# B1: TpsA (natural protein, Aspergillus niger, UniProt Q00075 1-517, looked up)
# chain: MPSLENPTFQNEARLLLVSNRLPITIKRSDDGRYDFSMSSGGLVSGLSGLSKSTTFQWYGWPGLEVPEEEIPVVKERLKQEYNAVPVFIDDELADRHYNGFSNSILWPLFHYHPGEITFDESAWEAYKEANRLFAKAVAKEVQDGDLIWVHDYHLMLLPEMLREEIGDSKENVKIGFFLHTPFPSSEIYRILPVRNELLLGVLHCDLIGFHTYDYTRHFLSACSRLLGLTTTPNGIEFQGKIIACGAFPIGIDPEKFEEGLKKEKVQKRIAMLEQKFQGVKLMVGVDRLDYIKGVPQKLHALEVFLSDHPEWVGKVVLVQVAVPSRQDVEEYQNLRAVVNELVGRINGKFGTVEFMPIHFLHKSVNFDELIALYAVSDACIVSSTRDGMNLVAYEYIATQKKRHGVLVLSEFAGAAQSLNGSIIINPWNTEELAGAYQEAVTMSDEQRALNFSKLDKYVNKYTSAFWGQSFVTELTRISEHSAEKFHAKKASFSDNNSENGEPSNGVETPAQEQVAQ
# notes: TpsA, putative trehalose-6-phosphate synthase of Aspergillus niger (Tps1 ortholog), gene tpsA, ANI_1_1406074; full-length cDNA / open reading frame; Cloned into both vectors; each fusion carries one of the two fragments (T25 or T18), not both. cDNA from A. niger N402 background; also called tpsA gene product; trehalose-6-phosphate synthase TpsA; source: bacterial two-hybrid fusion (pKT25 and …)
# B2: TpsB (natural protein, Aspergillus niger, UniProt Q00217 1-480, looked up)
# chain: MAANGSSSEGDHRLLIVSNRLPITIRRSGGGKYEFSMSSGGLVTGLSGLSKTTTFQWYGWPGLEVPEDEIDSVKQRLQEEFNATPVFMDDKLADRHYNGFSNSILWPLLHYHPGEIVFDEAAWDAYREANRLFAKTIAHEAREGDLVWVHDYHLMLLPEVLREELAALGKNNIRIGFFLHTPFPSSEIYRILPVRSQLLRGVLQCDLIGFHTYDYARHFLSCCSHILGLVTTPSSVKFKDRSVAVGAFPIGIDPDKFTEGLKSPKVQNRIASLENKFQGTKLMVSVDRLDYIKGIPQKLHALEVFLSQHPEWVGKVVLVQVAVPSRQDVEEYQNLRAVVNELVGRINGKFGTVDYMPIHFMHKSVSFDELIALYAASDACVVSSTRDGMNLVSFEYVATQQKRKGVLILSEFAGAAQSLNGSIVVNPWNTEELASAYHEAVSMSDDLRAQKFEKLYKYISKYTSAFWGKSFVAELSKCST
# notes: TpsB, putative trehalose-6-phosphate synthase of Aspergillus niger (Tps1 ortholog), gene tpsB, ANI_1_1078064; full-length cDNA / open reading frame; Cloned into both vectors; each fusion carries one of the two fragments (T25 or T18), not both; also called tpsB gene product; trehalose-6-phosphate synthase TpsB; source: bacterial two-hybrid fusion (pKT25 and pUT18C), in E. coli BTH101
# Key:
# Assay in all cases: two-hybrid; bacterial adenylate cyclase two-hybrid (BACTH System Kit); pKT25 and pUT18C fusions co-transformed into E. coli BTH101; LB with ampicillin, kanamycin and 0.5 mM IPTG, 100 rpm, 20°C, 72 h; β-galactosidase assay as units/mg dry weight; three to four independent assays
# [1] = target: TpsC (Aspergillus niger)
# [2] = target: B2
# [3] = target: the molecule itself
# [4] = target: TppA (Aspergillus niger)
# [5] = target: B1; details: partners not purified
Molecule,β-galactosidase activity (two-hybrid) (units/mg dry weight bacteria) [1],β-galactosidase activity (two-hybrid) (units/mg dry weight bacteria) [2],β-galactosidase activity (two-hybrid) [3],β-galactosidase activity (two-hybrid) ([2]; partners not purified),β-galactosidase activity (two-hybrid) (units/mg dry weight bacteria) [4],β-galactosidase activity (two-hybrid) [5]
TpsC (natural protein),1210,688,,,,
TppA (natural protein),,691,,,,
B1,,,418 units/mg dry weight bacteria,1750 units/mg dry weight bacteria,,
B2,441,,1780 units/mg dry weight bacteria,,581,1590 units/mg dry weight bacteria
